Source: paper PMC2175287 (The Journal of Cell Biology, 2000)
Blank lines part the entries; values can stand above or below the molecule they belong to.

Tests used:
[1] = target: Mtr10p (UniProt Q99189); assay: GST pull-down, S-tag blot, no extract; details: reference: mock-phosphorylated GST-Npl3p; sites S411
[2] = target: T1, Mtr10-Protein A (S. cerevisiae, UniProt Q99189 1-972); assay: co-IP
T1 sequence (looked up): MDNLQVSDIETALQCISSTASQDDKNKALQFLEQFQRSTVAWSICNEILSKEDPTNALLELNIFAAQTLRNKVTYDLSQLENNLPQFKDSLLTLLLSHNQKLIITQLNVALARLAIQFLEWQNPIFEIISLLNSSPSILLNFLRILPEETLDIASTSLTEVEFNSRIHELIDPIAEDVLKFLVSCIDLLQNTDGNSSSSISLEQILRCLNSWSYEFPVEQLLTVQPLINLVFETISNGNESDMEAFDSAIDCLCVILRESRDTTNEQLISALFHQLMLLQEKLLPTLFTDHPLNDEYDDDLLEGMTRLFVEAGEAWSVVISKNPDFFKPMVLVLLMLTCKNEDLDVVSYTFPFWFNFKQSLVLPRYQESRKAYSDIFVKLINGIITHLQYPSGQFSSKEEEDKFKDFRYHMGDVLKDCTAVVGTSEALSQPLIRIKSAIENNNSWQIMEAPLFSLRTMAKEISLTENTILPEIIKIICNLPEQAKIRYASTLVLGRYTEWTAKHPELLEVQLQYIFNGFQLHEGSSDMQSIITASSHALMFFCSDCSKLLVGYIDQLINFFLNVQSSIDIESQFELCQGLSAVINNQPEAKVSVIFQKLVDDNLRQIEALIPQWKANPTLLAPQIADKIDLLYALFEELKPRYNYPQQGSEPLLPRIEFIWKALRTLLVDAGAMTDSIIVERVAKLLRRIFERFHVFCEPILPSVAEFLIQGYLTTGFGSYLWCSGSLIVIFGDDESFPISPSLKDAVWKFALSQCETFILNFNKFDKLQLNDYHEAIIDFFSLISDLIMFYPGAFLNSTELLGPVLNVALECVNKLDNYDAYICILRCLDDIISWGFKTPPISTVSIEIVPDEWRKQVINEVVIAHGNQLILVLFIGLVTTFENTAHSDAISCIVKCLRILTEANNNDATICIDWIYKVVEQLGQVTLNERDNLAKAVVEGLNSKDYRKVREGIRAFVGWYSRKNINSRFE

[3] = target: T2, in vitro-translated 35S-labeled Mtr10p (S. cerevisiae, UniProt Q99189 1-972, 35S-labeled)
T2 sequence (looked up): T1 sequence (looked up)

binding against the reference [1]: stronger
Molecule: Npl3p (from UniProt Q01560) Sky1p-phosphorylated GST-Npl3p

fold reduction of co-precipitated Npl3p in sky1Δ against wild-type yeast [2]: 3 fold
B1: Npl3p (endogenous) (natural protein, S. cerevisiae (endogenous in yeast), UniProt Q01560 1-414, looked up)
chain: MSEAQETHVEQLPESVVDAPVEEQHQEPPQAPDAPQEPQVPQESAPQESAPQEPPAPQEQNDVPPPSNAPIYEGEESHSVQDYQEAHQHHQPPEPQPYYPPPPPGEHMHGRPPMHHRQEGELSNTRLFVRPFPLDVQESELNEIFGPFGPMKEVKILNGFAFVEFEEAESAAKAIEEVHGKSFANQPLEVVYSKLPAKRYRITMKNLPEGCSWQDLKDLARENSLETTFSSVNTRDFDGTGALEFPSEEILVEALERLNNIEFRGSVITVERDDNPPPIRRSNRGGFRGRGGFRGGFRGGFRGGFSRGGFGGPRGGFGGPRGGYGGYSRGGYGGYSRGGYGGSRGGYDSPRGGYDSPRGGYSRGGYGGPRNDYGPPRGSYGGSRGGYDGPRGDYGPPRDAYRTRDAPRERSPTR

Kd [3]: 30 nM
B2: GST-Npl3p phosphorylated by Sky1p (natural protein, S. cerevisiae, UniProt Q01560 1-414, looked up)
chain: B1 chain
modifications: phosphoserine at 411 (single site of Sky1p)
